Measured values reported in patent US20200079833A1 (AstraZeneca / MedImmune, published 2020).
Starred links: 1 amine or outer side, 2 acyl side, 3 side chain; linkers in the order of their positions; H or OH if unused. Non-standard residues stand in square brackets, D forms with d. Groups on a side chain read outwards from the residue. No end group written: not given here. *: point of attachment. γGlu = O=C(O)[C@H](CCC(=O)[*:2])N[*:1]; Palmitoyl = CCCCCCCCCCCCCCCC(=O)*; αMeF = C[C@](N)(Cc1ccccc1)C(=O)O; αMeK = C[C@](N)(CCCCN)C(=O)O; αMeS = C[C@](N)(CO)C(=O)O; Aib = CC(C)(N)C(=O)O

T1: glucose-dependent insulinotropic peptide (gastric inhibitory polypeptide) receptor (human, UniProt P48546 22-466)
T1 sequence (looked up): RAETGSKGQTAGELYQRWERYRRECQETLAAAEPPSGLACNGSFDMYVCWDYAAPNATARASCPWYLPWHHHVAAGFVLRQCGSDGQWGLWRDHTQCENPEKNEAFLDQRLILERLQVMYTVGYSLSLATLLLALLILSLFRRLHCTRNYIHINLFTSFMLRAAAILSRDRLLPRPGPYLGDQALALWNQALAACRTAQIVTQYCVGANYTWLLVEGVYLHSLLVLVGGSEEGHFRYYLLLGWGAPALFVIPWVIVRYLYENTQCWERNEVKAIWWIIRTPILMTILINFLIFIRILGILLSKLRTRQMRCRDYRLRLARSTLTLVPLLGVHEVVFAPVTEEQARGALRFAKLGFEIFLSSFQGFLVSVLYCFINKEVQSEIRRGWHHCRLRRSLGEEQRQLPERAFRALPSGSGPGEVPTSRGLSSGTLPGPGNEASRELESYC

B1: SEQ ID NO 76 (peptide)
peptide: H[Aib]EGS[αMeF]TSDV[αMeS]S[αMeF]LEGEAA[αMeK]E[αMeF]IK([γGlu-Palmitoyl])[αMeF]VV[αMeK]GG-NH2
modifications: N-terminus assumed
SMILES: CCCCCCCCCCCCCCCC(=O)N[C@@H](CCC(=O)NCCCC[C@H](NC(=O)[C@@H](NC(=O)[C@](C)(Cc1ccccc1)NC(=O)[C@H](CCC(=O)O)NC(=O)[C@](C)(CCCCN)NC(=O)[C@H](C)NC(=O)[C@H](C)NC(=O)[C@H](CCC(=O)O)NC(=O)CNC(=O)[C@H](CCC(=O)O)NC(=O)[C@H](CC(C)C)NC(=O)[C@](C)(Cc1ccccc1)NC(=O)[C@H](CO)NC(=O)[C@](C)(CO)NC(=O)[C@@H](NC(=O)[C@H](CC(=O)O)NC(=O)[C@H](CO)NC(=O)[C@@H](NC(=O)[C@](C)(Cc1ccccc1)NC(=O)[C@H](CO)NC(=O)CNC(=O)[C@H](CCC(=O)O)NC(=O)C(C)(C)NC(=O)[C@@H](N)Cc1c[nH]cn1)[C@@H](C)O)C(C)C)[C@@H](C)CC)C(=O)N[C@@](C)(Cc1ccccc1)C(=O)N[C@H](C(=O)N[C@H](C(=O)N[C@@](C)(CCCCN)C(=O)NCC(=O)NCC(N)=O)C(C)C)C(C)C)C(=O)O
B2: SEQ ID NO 11 (peptide)
peptide: H[Aib]EGS[αMeF]TSDVSS[αMeF]LEGEAA[αMeK]E[αMeF]VA[αMeF]VV[αMeK]GG-NH2
modifications: N-terminus assumed
SMILES: CC(C)C[C@H](NC(=O)[C@](C)(Cc1ccccc1)NC(=O)[C@H](CO)NC(=O)[C@H](CO)NC(=O)[C@@H](NC(=O)[C@H](CC(=O)O)NC(=O)[C@H](CO)NC(=O)[C@@H](NC(=O)[C@](C)(Cc1ccccc1)NC(=O)[C@H](CO)NC(=O)CNC(=O)[C@H](CCC(=O)O)NC(=O)C(C)(C)NC(=O)[C@@H](N)Cc1c[nH]cn1)[C@@H](C)O)C(C)C)C(=O)N[C@@H](CCC(=O)O)C(=O)NCC(=O)N[C@@H](CCC(=O)O)C(=O)N[C@@H](C)C(=O)N[C@@H](C)C(=O)N[C@@](C)(CCCCN)C(=O)N[C@@H](CCC(=O)O)C(=O)N[C@@](C)(Cc1ccccc1)C(=O)N[C@H](C(=O)N[C@@H](C)C(=O)N[C@@](C)(Cc1ccccc1)C(=O)N[C@H](C(=O)N[C@H](C(=O)N[C@@](C)(CCCCN)C(=O)NCC(=O)NCC(N)=O)C(C)C)C(C)C)C(C)C
B3: SEQ ID NO 77 (peptide)
peptide: H[Aib]EGS[αMeF]TSDV[αMeS]S[αMeF]LEGEAA[αMeK]E[αMeF]K([γGlu-Palmitoyl])A[αMeF]VV[αMeK]GG-NH2
modifications: N-terminus assumed
SMILES: CCCCCCCCCCCCCCCC(=O)N[C@@H](CCC(=O)NCCCC[C@H](NC(=O)[C@](C)(Cc1ccccc1)NC(=O)[C@H](CCC(=O)O)NC(=O)[C@](C)(CCCCN)NC(=O)[C@H](C)NC(=O)[C@H](C)NC(=O)[C@H](CCC(=O)O)NC(=O)CNC(=O)[C@H](CCC(=O)O)NC(=O)[C@H](CC(C)C)NC(=O)[C@](C)(Cc1ccccc1)NC(=O)[C@H](CO)NC(=O)[C@](C)(CO)NC(=O)[C@@H](NC(=O)[C@H](CC(=O)O)NC(=O)[C@H](CO)NC(=O)[C@@H](NC(=O)[C@](C)(Cc1ccccc1)NC(=O)[C@H](CO)NC(=O)CNC(=O)[C@H](CCC(=O)O)NC(=O)C(C)(C)NC(=O)[C@@H](N)Cc1c[nH]cn1)[C@@H](C)O)C(C)C)C(=O)N[C@@H](C)C(=O)N[C@@](C)(Cc1ccccc1)C(=O)N[C@H](C(=O)N[C@H](C(=O)N[C@@](C)(CCCCN)C(=O)NCC(=O)NCC(N)=O)C(C)C)C(C)C)C(=O)O

Assays:
Assay in all cases: cell-based or functional assay
[1] = biological target: GLP-1 receptor (human, UniProt P43220 24-463)
[2] = biological target: T1, glucose-dependent insulinotropic …
[3] = biological target: glucagon receptor (human, UniProt P47871 26-477)
Sequence of glucagon receptor (P47871 26-477): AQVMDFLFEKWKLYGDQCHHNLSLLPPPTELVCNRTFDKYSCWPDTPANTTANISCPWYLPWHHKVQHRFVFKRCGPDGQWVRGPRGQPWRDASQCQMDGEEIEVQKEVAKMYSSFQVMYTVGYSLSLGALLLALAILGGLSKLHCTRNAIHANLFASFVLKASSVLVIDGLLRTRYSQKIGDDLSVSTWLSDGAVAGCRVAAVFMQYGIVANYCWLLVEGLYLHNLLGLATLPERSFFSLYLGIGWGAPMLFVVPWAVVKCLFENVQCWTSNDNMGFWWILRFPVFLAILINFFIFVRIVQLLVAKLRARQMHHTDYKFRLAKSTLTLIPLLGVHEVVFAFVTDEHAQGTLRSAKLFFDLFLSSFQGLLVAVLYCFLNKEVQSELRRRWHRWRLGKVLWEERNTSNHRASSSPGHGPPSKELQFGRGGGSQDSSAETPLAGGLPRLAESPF

Row | Binder | Primary assay EC50 (cAMP), Mean pM GLP-1R [1] [pM] | Primary assay EC50 (cAMP), n1 [1] [nM] | Primary assay EC50 (cAMP), n2 [1] [nM] | Primary assay EC50 (cAMP), n1 [2] [nM] | Primary assay EC50 (cAMP), n2 [2] [nM] | Primary assay EC50 (cAMP), n1 [3] [nM] | Primary assay EC50 (cAMP), n2 [3] [nM]
1 | B1 | 7.2 | 0.0084 | 0.006 | 27 | 27 | 27 | 27
2 | B2 | 32 | 0.032 | 0.032 | 100 | 100 | 100 | 100
3 | B3 | 1860 | 1.9 | 1.8 | 28 | 28 | 28 | 28
